The labels stand for the following.
B1: H3_W99H_VL-par (antibody, V domains shown)
VH: QVQLVESGGGVVQPGRSLRLSCAASGFTFSDYGMHWVRQAPGKGLEWVAYISSGGTTIYYADTVKGRFTISRDNSKNTLYLQMNSLRAEDTAVYYCARHTNLYAMDYWGQGTTVTVSS
VL: DIVLTQSPDSLAVSLGERATINCRASKSVSTSGYSYMHWYQQKPGQPPKFLIYLASNLESGVPDRFSGSGSGTDFTLTISSLQAEDVAVYYCQHSREVPYTFGGGTKVEIKR
B2: H3_W99H_L2 (antibody, V domains shown)
VH: B1 VH
VL: B1 VL with L58K
B3: 51B12 parent (51B12_VH_VL-par) (antibody, V domains shown)
VH: B1 VH with H99W
VL: B1 VL
B4: H3_W99H_L1 (51B12_W99H_L1) (antibody, V domains shown)
VH: B1 VH
VL: B1 VL with S32Q

Positions count from the first letter of the chain named.

The target in the first assay is T1, huZIP12-ECD-GST (human, UniProt Q504Y0). In words: SPR.
One may read the Kd as the concentration at which binding is half-saturated. A higher Kd goes with weaker binding. B1 returned an equilibrium dissociation constant (Kd) of around 0.5 nM. With B2, the Kd is around 0.5 nM.

Another assay addresses T1, huZIP12-ECD-GST. Kind of assay: SPR, extended dissociation re-test. Background: SPR reads the build-up and loss of mass on a sensor chip optically.
In turn, B1 returned a Kd of around 0.3 nM. Consider B3, for which the affinity, expressed as Kd, was 1.1 nM. The same measure, in the same setting: the same measure for B4: around 0.3 nM; for B2: around 0.3 nM.
